Results from US20200369727A1, “COMPOSITION AND METHOD FOR TREATING A PATIENT HAVING LIVER CIRRHOSIS” (priority 2019, published 2020).

Target: T1, NS3 of SEQ ID NO: 3 (HCV NS3 genotype 4a) (Hepatitis C virus genotype 4a, UniProt O39929)
T1 construct: T7 tag (N); 6-His tag (C); made in house; host or cells: E. coli Rosette (DE3) pLysS
Assay: Differential static light scattering (DSLS), aggregation temperature of NS3 with peptide
Type: binding
Details: NS3 of SEQ ID NO: 3 with peptide in 1:2 ratio, room temperature, two hours, shaking
Method: The binding of SEQ ID NO: 4 and its variants of SEQ ID NO: 6-20 to the NS3 of SEQ ID NO: 3 were determined by differential static light scattering method using Stargazer-2™ (Harbinger Biotechnology and Engineering Corporation, Toronto, Canada). The method assesses protein stability by monitoring aggregate formation upon gradual increase of temperatures. NS3 domain of SEQ ID NO: 3 stability upon binding to NS4A of SEQ ID NO: 4 was measured by monitoring denatured protein aggregation upon increasing temperature from 25 to 85° C. in 0.5° C. increments at 600 nm. […] The mixture and control were incubated at room temperature with gentle shaking for specified time. […]. Afterwards, 10 μL of the mixture was transferred into a clear bottom Nunc 384-well plate and covered by 10 μL paraffin oil to minimize evaporation. Protein aggregation was monitored by tracking the change in scattered light that was detected by a CCD camera. Snapshot images of the plate were taken every 0.5° C. The pixel intensities in a preselected region of each well were integrated using image analysis software to generate a value representative of the total amount of scattered light in that region. […] Aggregation was monitored and analyzed to assess the effect of NS4A of SEQ ID NO: 4 and its synthetic analogues of SEQ ID NO: 6-20 on the stability of the NS3 as an indicator of binding. […]

## KKGSVVIVGRIVLSGKK [SEQ ID NO: 4, reference compound]
  ΔTagg (Tagg shift, aggregation temperature): 2.83 °C
